Assay: yeast display, Sf9 membrane polyspecificity reagent, FACS + sequencing; frameworks hold sequencing errors
Procedure, shortened: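 Using colony PCR, genes from sorted yeast display clones were amplified, then sequenced on MiSeq at 2 × 250 and filtered by CDR length. The clones had been stained with 10% biotinylated, detergent-solubilized Sf9 membrane reagent for 1 hour at 4 °C and sorted by FACS into low and high (top ~1%) gates on anti-HA and streptavidin fluorescence. Polyreactivity labels come from the gate of origin.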

| Sequence | polyreactivity (PSR sort gate) |
| --- | --- |
| QVQLVESVGGLVQAGGSLRLSCAASGRIFGFSTMGWYRQARGKDRELVATISWSGSGTYYADSVKGRFTISRDNAYNTVYLQMNRLKPEDTAVYYCNADWYYFGYDYWGQGTQVTVST | low polyreactivity |
| QVQLVESVGGLVQAGGSLRLSCAASGRIFGRYAMGWYRQAPGKESELVAAISTNGGRTYYADSVKGRFTISRDNAKNTVYLQRKSLKPEDNADYYCARAYRGPGYVIRYDYWGQGTQVTVSS | high polyreactivity |
| QVQLVESVGGLVQAGGSLRLSCAASGRIFKWYAMGWYRQAPGKERELVAAITSGGGSTYYADSVKGRFTISRDNAKNTVYLQINSLKPEDTAVYYCNAKAPAEIRSYLRTSRYDYWGQGTQVTVSS | high polyreactivity |
| QVQLVESVGGLVQAGGSLRLSCAASGRIFPTYAMGSSRQAPGKERELVAAISRSGGRTYYADSVKGRFTSSRDNAKNTVYLQMNSLKPEDTAVYYCNAEGDPYVDFPSRSTGYDYWGQGTQVTVSS | high polyreactivity |
| QVQLVESVGGLVQAGGSLRLSCAASGRIFRFYAMGWYRQAPGKERELVAAISSSGVRTYYADSVKGRFTISRDNAKKTVYLQINSLTPEDTAVYYCAASRHFARHRGYYFRYDYWGQGTQVTVSS | high polyreactivity |
| QVQLVESVGGLVQAGGSLRLSCAASGRIFRYYAMGWSSQAPGKESELVAAITSDGRTYYADSVKGRFTISRDNAKNTVYLQMNSQKPEDTAVYYCAADHHSYRYGGYYYWGQGTQVTVAS | low polyreactivity |
| QVQLVESVGGLVQAGGSLRLSCAASGRTFDGNAMGWYRQAPGKERELVAAIRFNGSTTYYADSVKGRFTISRDNSKNTVYLQMNSLKPEDTAVYYCNKFEGALGGMDYWGQGTQVTVSS | low polyreactivity |
| QVQLVESVGGLVQAGGSLRLSCAASGRTFGGNAMGWYRQAPGKERELVAVITGSGARTYYADSVKGRFTISRDNAKNTVYLQMNSLKPEDTAVYYCAAAGYSGQYRSYYWGQGTQVTVSS | high polyreactivity |
| QVQLVESVGGLVQAGGSLRLSCAASGRTFGRKALVWYTQAPGKERELVAAISTSGSRTYYADSVKGRFTISRDNAKNTVYLQLNSLTPEDTAVYYCYAYGVSRGSYGTRGYWGQGTQVTVSS | high polyreactivity |
| QVQLVESVGGLVQAGGSLRLSCAASGRTFGRYAMGWDRQAPGKERELVAAISWSGATTYYADSVKGRFTISRDNAKNTVYLQMNSLKPEDTAVYYCAARFRRGITYEYWGQGTQVTVSS | high polyreactivity |
| QVQLVESVGGLVQAGGSLRLSCAASGRTFGRYAMGWYRQAPGKERELVAGISRSGDSTHYADSVKGRFTISRDNAKNTVYLQMNSLKPEDTAVYYCNKETPTNGARKYEYWGQGTQVTVSS | low polyreactivity |
| QVQLVESVGGLVQAGGSLRLSCAASGRTFLRNAMGWYRQAPGKERELVASITSRGGRTYADSVKGRFTISRDNAKNTVYLQMNSLKPEDTAVYYCAARRQAGLRYDYWGQGTQVTVSS | high polyreactivity |
| QVQLVESVGGLVQAGGSLRLSCAASGRTFMYNAMGWYRQAPGKERELVAAISWSGGSTYYADSVKGRFTISRDNAKNTVYFLMNSLKPEDTAVYYCAATGRRSGFYFWGQGTQVTVSS | high polyreactivity |
| QVQLVESVGGLVQAGGSLRLSCAASGRTFPYYAKGGYRQAPWKERELVATISSGGITNYADSVKVRFTISRDNAKNTVYLQMNSLKPEDTAVYYCAADRHWSAGLWRYDYWGQGTQVTVSS | high polyreactivity |
| QVQLVESVGGLVQAGGSLRLSCAASGRTFVRYTMGWYRQAPGKERELVAAITWSGGSTYYADSVKGRFTISRDNATNTVYLQMNSLKPEDTAVYDCAARTYFGTQLQRYYWGQGTQVTVSS | high polyreactivity |
| QVQLVESVGGLVQAGGSLRLSCAASGRTLRYYAMGWYRQAPGKERELVATITRRSGSTYYADSVKGRFTISRDNAKNTVYLQMNSLKPEDTAVYYCNAVWRPGERDYWGQGTQVTVSS | low polyreactivity |
| QVQLVESVGGLVQAGGSLRLSCAASGSIEAYAMGWYRQAPGKERELVASITWRGGSTYYADSVKGRFTISRDNAKNTVYLQMNSLKPEDTAVYYCAAGFQTRTPLNQFDYWGQGTQVTVSS | low polyreactivity |
| QVQLVESVGGLVQAGGSLRLSCAASGSIFAIYVMGSYRQAPGKERELVAAISYRSGSTYYADSVKGRFTISRDNAKNTVYLQMNSLKPEDTAVYYCAATSRYYTFGYWGQGTQVTVSS | low polyreactivity |
| QVQLVESVGGLVQAGGSLRLSCAASGSIFAPYAMGWYRQAPGKERELVAAITWSGDSTYYADSVKGRFTISRDNAKNTVYLQMNSLKPEDTAVYYCATEEVYGQGNYWGQGTQVTVSS | low polyreactivity |
| QVQLVESVGGLVQAGGSLRLSCAASGSIFAVNAMGWYRKAPGTERELVAAITSSGVDTYYADSVKGRFTISRDNAKNTVYLQMNSLKPEDTAVYYCAADDQLNWYDYWGQGTQVTVSS | low polyreactivity |
| QVQLVESVGGLVQAGGSLRLSCAASGSIFHYNALGWYRPAPGKERELVAAITSGGSTYADSVKGRFTISRDNAKNTVYLQMNSLKPEDTAVYYCNADSVGPRGDLGYWGQGTQVTVSS | low polyreactivity |
| QVQLVESVGGLVQAGGSLRLSCAASGSIFLQYTMGWYRQAPGKERELVAAITESDGSTYYADSVKGRFTISRDNAKNTVYLQMNSLKPEDTAVYYCAADVVYFKYWDKYDYWGQGTQVTVSS | low polyreactivity |
| QVQLVESVGGLVQAGGSLRLSCAASGSIFRLYAMGWYRQAPGKERELVAAITWSGGSTYYADSVKGRFTISRDNAKNTVYLQMNSLKPEDTAVYYCNALVGGYRSAIFGYWGQGTQVTVSS | high polyreactivity |
| QVQLVESVGGLVQAGGSLRLSCAASGSIFSSYAMGWYRQAPGKERELVAAITSGGSTYYADSVKGRFTISRDNAKNTVYLQMNSLKPVDPAVYYCAAREVLTSKLHMGYWGTGTQVTVSS | low polyreactivity |
| QVQLVESVGGLVQAGGSLRLSCAASGSIFTYNAMGWYRQAPGKERELVAAITTSGDSTYYADSVKGRFTISRDNAKNTVYLQMNSLKPEDTAVYYCNADWSWYNYYDFDYWGQGTQVTVSS | low polyreactivity |
| QVQLVESVGGLVQAGGSLRLSCAASGSIFVKNAMGWYRQAPGKEREFVAVISTGDSTHYADSVKGRFTISRDNAKNTVYLQMNSLKPEDTAVYYCAARYYSYGSSYGYWGQGTQVTVSS | high polyreactivity |
| QVQLVESVGGLVQAGGSLRLSCAASGSIFVKNAMGWYRQAPGKERELVAVITIRTATTYYADSVKGRFTISRDNAKNTVYLQMNSLKPEDTAVYYCAAAKRQRGYLQREYDYWGQGTQVTVSS | low polyreactivity |
| QVQLVESVGGLVQAGGSLRLSCAASGSIFYWSAMGWYRQAPGKERELVAAISSGGSTNYADSVKGRFTISRDNAKNTVYLQMNSLKPEDTAVYYCAAGWDASYGYDYWGQGTQVTVSS | low polyreactivity |
| QVQLVESVGGLVQAGGSLRLSCAASGSNFYVNAMGWYRQAPGKERELVAAISRRGGSTYYADSVKGRFTISRDNAKNTVSLQMNSLKPEDTAVYYCNKAIRGQAPSGPEYYYWGHGTQVTVSS | high polyreactivity |
| QVQLVESVGGLVQAGGSLRLSCAASGSTFGIYTMGWYRQAPGKERELVAAISSRGGSTYYADSVKGRFTISRDNAKNTVYLQMNSLKPEDTAVYYCAAVGRSHSRPYTDEYWGQGTQVTVSS | high polyreactivity |
